Test results: ChEMBL document CHEMBL3414448, “Advances in the discovery of novel antimicrobials targeting the assembly of bacterial cell division protein FtsZ” (Eur J Med Chem, 2015)

Compound: N=C(N)c1ccc(-c2cc3ccc(C(=N)N)cc3[nH]2)cc1
Assay: Inhibition of Escherichia coli FtsZ assessed as reduction in substrate KM value

B1: Cell division protein FtsZ (Escherichia coli K-12), P0A9A6 (protein)
chain: MFEPMELTNDAVIKVIGVGGGGGNAVEHMVRERIEGVEFFAVNTDAQALRKTAVGQTIQIGSGITKGLGAGANPEVGRNAADEDRDALRAALEGADMVFIAAGMGGGTGTGAAPVVAEVAKDLGILTVAVVTKPFNFEGKKRMAFAEQGITELSKHVDSLITIPNDKLLKVLGRGISLLDAFGAANDVLKGAVQGIAELITRPGLMNVDFADVRTVMSEMGYAMMGSGVASGEDRAEEAAEMAISSPLLEDIDLSGARGVLVNITAGFDLRLDEFETVGNTIRAFASDNATVVIGTSLDPDMNDELRVTVVATGIGMDKRPEITLVTNKQVQQPVMDRYQQHGMAPLTQEQKPVAKVVNDNAPQTAKEPDYLDIPAFLRKQAD
B1 was tested, and the Km was 29.4 µM.
